Measurements from the supplement of paper PMC10201428.
± gives the standard deviation of the averaged measurements.

B1: library; a variant is named by its letters at N, in order (parent)
chain: AATGTTGTTGATGCAACCATAAAGTGATATTTAATAATTATTTATAATCAGCAACTTAACCACAAAACAACCATATATTGATATNTCACAAAACAACCATAANTTGATATTTTTGTGAATCGAGTATTTCAGCAAAACTACTGCAGTAAGAA

Key:
[1] = variants of: B1; test: relative integration efficiency (T-LR orientation) vs wild-type transposon end (log2 (normalized fold change)); transposon end mutated: left end; higher = more efficient transposition; settings: with VchCAST RNA-guided transposition machinery (E. coli BL21(DE3) host, lacZ target)
Method in brief: (§1)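 Co-transformation of E. coli BL21(DE3) combined a pUC57 mini-transposon donor, holding barcoded pools of 1549 left-end or 1849 right-end variants, with a T7-driven plasmid encoding a CRISPR array, tniQ-cas8-cas7-cas6 and tnsA-tnsB-tnsC. After plating with 0.1 mM IPTG at 37°C for 18 h, input plasmids and genomic integration junctions were PCR-amplified and Illumina-sequenced across two biological output replicates, with four reference barcodes. Relative integration efficiency is the normalised, log-transformed output/input barcode fold change.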

[2] = variants of: B1; test: relative integration efficiency (T-RL orientation) vs wild-type transposon end (log2 (normalized fold change)); transposon end mutated: left end; higher = more efficient transposition; settings: with VchCAST RNA-guided transposition machinery (E. coli BL21(DE3) host, lacZ target)
Method in brief: as §1

Variant	relative integration efficiency (log2) [1]	relative integration efficiency (log2) [2]
CG A50T	-0.977 ± 0.48	-0.161 ± 0.19
CG A50C	-0.533 ± 0.31	-0.119 ± 0.099
CG A23T G24C T25A G26C	-2.69 ± 1.5	-2.6 ± 0.78
CG A81T T82A	-1.34 ± 0.81	-1.03 ± 0.48
CG A37C T38G	-0.172 ± 0.0031	-0.236 ± 0.044
CG A54T C55G	0.202 ± 0.2	-0.316 ± 0.29
CG A64C	-0.814 ± 1.1	-0.0626 ± 0.11
CG A64T	-0.053 ± 0.081	-0.229 ± 0.11
CG A64G	-0.0623 ± 0.097	-0.383 ± 0.14
CG A47T T48A	0.0225 ± 0.3	0.341 ± 0.033
CG A46G A47G C49G A50T G51C C52T A53C A54G A58C C60G	-3.701 ± 0.037	-3.69 ± 1.2
CG A73T T74A A75T T76A	-1.64 ± 0.86	-0.919 ± 0.62
CG A53T A54T	-0.0995 ± 0.047	-0.0854 ± 0.17
CG A27C	-0.151 ± 0.13	-0.383 ± 0.25
CG A27G	-0.486 ± 0.47	-0.621 ± 0.35
CG A27T	-1.01 ± 1.3	-0.545 ± 0.55
CG A29T A83T A109T	-0.979 ± 0.74	-0.428 ± 0.23
CG A54T C55G T56A T57A	-0.43 ± 0.9	-0.861 ± 0.54
CG A70C C71A	-1.75 ± 1.2	-1.24 ± 0.54
CG A65C	0.328 ± 0.076	0.247 ± 0.051
CG A65G	0.108 ± 0.82	0.247 ± 0.21
CG A65T	0.125 ± 0.051	0.0807 ± 0.096
CG A40T T41A T42A T43A	0.256 ± 0.21	0.0403 ± 0.12
CG A66C A67C C68A A69C	-0.943 ± 0.25	-0.685 ± 0.37

Variant	relative integration efficiency (log2) [1]	relative integration efficiency (log2) [2]
CG A46C	-0.118 ± 0.76	-0.291 ± 0.11
CG A46G	-0.0959 ± 0.59	-0.0807 ± 0.18
CG A46T	-0.195 ± 0.93	-0.0773 ± 0.14
CG A66C A67C	-0.404 ± 0.29	-0.0641 ± 0.033
CG A27T A81T A107T	-2.46 ± 1.4	-3.03 ± 1.3
CG A90C	-0.155 ± 0.19	-0.278 ± 0.11
CG A70C C71A C72A A73C	-2 ± 1.7	-2.13 ± 0.84
CG A37T T38A	0.156 ± 0.25	0.191 ± 0.1
CG A47C T48G C49A A50C	-1.93 ± 0.6	-1.5 ± 0.48
CG A62T C63G	-0.0229 ± 0.67	0.275 ± 0.072
CG A67C C68A A69C A70C	-0.846 ± 1.2	-0.531 ± 0.42
CG A29C A83C A109C	-1.94 ± 0.43	-1.65 ± 0.57
CG A67T C68G	-0.364 ± 0.41	-0.543 ± 0.47
CG A40T	0.577 ± 0.12	0.279 ± 0.021
CG A40C	-0.351 ± 0.61	-0.0674 ± 0.033
CG A40G	0.0123 ± 0.78	-0.273 ± 0.0094
CG A36C A37C T38G T39G	-0.25 ± 0.0025	-0.22 ± 0.14
TG A70C T76A T84A C87A	0.577 ± 0.018	-0.0929 ± 0.15
CG A23G G24T A33T	0.0764 ± 0.17	-0.108 ± 0.099
CG A62C C63A	-0.193 ± 0.12	0.182 ± 0.065
CG A40T T41A	-0.491 ± 0.97	-0.0047 ± 0.075
CG A73C T74G A75C T76G	-1.86 ± 0.67	-2.23 ± 0.73
CG A70T C71G C72G A73T	-2.15 ± 0.26	-2.22 ± 0.88
CG A59T	0.107 ± 0.13	0.0634 ± 0.055

Variant	relative integration efficiency (log2) [1]	relative integration efficiency (log2) [2]
CG A59G	0.164 ± 0.45	-0.0472 ± 0.057
CG A59C	0.591 ± 0.26	0.072 ± 0.14
CG A81T T82A A83T T84A	-0.679 ± 1.2	-0.753 ± 0.74
CG A69C A70C C71A C72A	-1.64 ± 0.34	-1.88 ± 0.72
CG A36G	-0.222 ± 0.59	-0.259 ± 0.23
CG A36C	-0.699 ± 0.7	-0.216 ± 0.15
CG A36T	0.0771 ± 0.068	0.0168 ± 0.042
CG A88T C89G A90T A91T	-0.283 ± 0.86	-0.432 ± 0.33
CG A54C C55A	0.298 ± 0.28	-0.0734 ± 0.078
GG A83T T84A T86A	-0.405 ± 0.36	-0.604 ± 0.36
CG A75T	-0.0748 ± 0.42	-0.289 ± 0.15
CG A75G	-0.592 ± 0.42	-0.877 ± 0.4
CG A75C	0.0557 ± 0.24	0.219 ± 0.63
CG A65C A66C A67C C68A	-1.01 ± 0.56	-0.474 ± 0.22
CG A36T A37T T38A T39A	0.111 ± 0.38	0.0771 ± 0.077
CG A44T	0.138 ± 0.09	0.0943 ± 0.032
CG A44C	-0.0239 ± 0.24	0.147 ± 0.068
CG A44G	0.0745 ± 0.29	0.155 ± 0.065
CG A44G A46G T48G A50G C52A A53T C55A T56C T57A	-3.63 ± 2.8	-4.04 ± 1.1
CG A53C A54C C55A T56G	-0.0934 ± 0.06	-0.592 ± 0.35
CG A88G	-0.182 ± 0.22	-0.24 ± 0.098
CG A88T	0.112 ± 0.73	0.0226 ± 0.1
CG A88C	-0.0509 ± 0.39	-0.148 ± 0.082
CG A33T C87G T113A	0.02216 ± 0.00015	-0.157 ± 0.2

Variant	relative integration efficiency (log2) [1]	relative integration efficiency (log2) [2]
CG A69T	-0.153 ± 0.2	-0.525 ± 0.1
CG A69G	-0.41 ± 0.78	-0.422 ± 0.41
CG A69C	-0.309 ± 0.7	-0.363 ± 0.1
CG A58T A59T	0.226 ± 0.49	-0.00421 ± 0.16
CG A64C A65C A66C A67C	-0.691 ± 0.34	-0.323 ± 0.18
CG A66C C68A A69C A70C C71A C72T A77T T78G T79A G80T A83C T86A C87A	-2.717 ± 0.015	-1.87 ± 0.77
CG A75C T76G A77C T78G	-2.25 ± 1.6	-1.8 ± 0.61
CG A59T C60G	0.263 ± 0.38	-0.145 ± 0.073
CG A27C T28G	-0.919 ± 0.29	-1.27 ± 0.47
CG A58C	-0.0754 ± 0.25	-0.223 ± 0.17
CG A58G	-0.0735 ± 0.46	-0.101 ± 0.063
CG A58T	-1.76 ± 1.7	-0.0803 ± 0.089
CG A33T A34T	0.663 ± 0.25	0.125 ± 0.061
CG A34C T35C A36G T38C A40G T42C A44G A62G A65G A66C	-0.6091 ± 0.0048	-0.635 ± 0.3
CG A23T G24C	0.111 ± 0.07	-0.0468 ± 0.13
CG A69C A70C	-0.684 ± 0.62	-0.537 ± 0.29
CG A59C C60A	-0.233 ± 0.25	-0.0701 ± 0.0044
CG A83C T84G	-0.6 ± 0.69	-0.94 ± 0.4
CG A66T A67T	0.205 ± 0.48	-0.0368 ± 0.048
CG A62C C63A A64C A65C	-0.604 ± 0.18	-0.324 ± 0.044
CG A54C C55A T56G T57G	-2.12 ± 1.2	-1.68 ± 0.8
TG A70C T76A T86G	0.145 ± 0.46	-0.133 ± 0.18
CG A83T T84A	-0.352 ± 0.65	-0.194 ± 0.16
CG A40C T41G T42G T43G	-0.1 ± 0.062	0.139 ± 0.11

Variant	relative integration efficiency (log2) [1]	relative integration efficiency (log2) [2]
CG A29C T30G	-1.28 ± 1.4	-1.12 ± 0.53
CG A73T	-0.055 ± 0.17	-0.536 ± 0.45
CG A73C	-2.78 ± 1.5	-1.14 ± 0.6
CG A73G	0.14 ± 0.13	0.0329 ± 0.31
CG A70T C71G	-0.292 ± 0.66	-0.898 ± 0.41
CG A29C	-0.501 ± 0.28	-0.333 ± 0.36
CG A29G	-0.232 ± 0.74	-0.238 ± 0.44
CG A29T	-0.0387 ± 0.14	0.26 ± 0.13
CG A36C A37C	0.196 ± 0.61	0.127 ± 0.018
CG A34C T35G	0.139 ± 0.22	-0.109 ± 0.025
CG A46T A47T T48G C49T A50G G51A C52G A53C A54G C55G T56A C61A	-1.93 ± 2	-1.9 ± 0.78
AG A83C T84G T86G	-1.31 ± 0.49	-0.668 ± 0.067
CG A47T T48A C49G A50T	-1.26 ± 1.6	-0.735 ± 0.52
CG A33T A34T T35A A36T	0.405 ± 0.42	0.295 ± 0.092
CG A65T A66T	0.447 ± 0.39	0.107 ± 0.0079
CG A66T A67T C68G A69T	-1 ± 0.9	-0.447 ± 0.35
CG A65T A66T A67T C68G	-0.641 ± 0.54	-0.247 ± 0.37
CG A34T T35A	0.192 ± 0.25	0.209 ± 0.033
CG A64T A65T	0.0165 ± 0.48	0.469 ± 0.084
CG A46T A47T	0.446 ± 0.37	0.452 ± 0.058
